Results: publication PMC11283359 (Molecular cell, 2024)

T1: 3XFLAG-MED26 (knock-in) (mouse (endogenous in CH12), UniProt Q7TN02 1-588)
T1 sequence (looked up): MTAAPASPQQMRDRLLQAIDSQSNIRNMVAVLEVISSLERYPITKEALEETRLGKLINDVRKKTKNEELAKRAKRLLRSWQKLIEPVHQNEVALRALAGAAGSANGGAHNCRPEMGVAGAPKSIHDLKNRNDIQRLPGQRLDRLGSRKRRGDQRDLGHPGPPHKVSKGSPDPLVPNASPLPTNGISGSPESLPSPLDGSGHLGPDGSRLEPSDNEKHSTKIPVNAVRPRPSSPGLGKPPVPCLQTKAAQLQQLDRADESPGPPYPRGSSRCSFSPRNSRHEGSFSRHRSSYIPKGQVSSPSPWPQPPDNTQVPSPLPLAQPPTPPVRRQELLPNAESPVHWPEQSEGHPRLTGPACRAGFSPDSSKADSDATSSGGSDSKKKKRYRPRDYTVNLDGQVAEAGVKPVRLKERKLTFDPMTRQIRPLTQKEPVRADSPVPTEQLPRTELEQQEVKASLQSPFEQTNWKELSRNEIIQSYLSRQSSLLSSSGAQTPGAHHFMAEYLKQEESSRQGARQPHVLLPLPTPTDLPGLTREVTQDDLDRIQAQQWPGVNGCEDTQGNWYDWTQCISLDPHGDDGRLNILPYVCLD

B1: MED7 (natural protein, mouse (endogenous in CH12), UniProt Q9CZB6 1-233, looked up)
chain: MGEPQQVSALPPPPMQYIKEYTDENIQEGLAPKPPPPIKDSYMMFGNQFQCDDLIIRPLESQGIERLHPMQFDHKKELRKLNMSILINFLDLLDILIRSPGSIKREEKLEDLKLLFVHVHHLINEYRPHQARETLRVMMEVQKRQRLETAERFQKHLERVIEMIQNCLASLPDDLPHSEAGMRVKAEPMDTDDNSNCPGQNEQQRESSGHRRDQIIEKDAALCVLIDEMNERP
B2: MED21 (natural protein, mouse (endogenous in CH12), UniProt Q9CQ39 1-144, looked up)
chain: MADRLTQLQDAVNSLADQFCNAIGVLQQCGPPASFSNIQTAINKDQPANPTEEYAQLFAALIARTAKDIDVLIDSLPSEESTAALQAASLYKLEEENHEAATCLEDVVYRGDMLLEKIQSALADIAQSQLKTRSVTHSHSLPDS
B3: MED31 (endogenous) (natural protein, mouse (endogenous in CH12), UniProt Q9CXU1 1-131, looked up)
chain: MAAAVAMETDDAGNRLRFQLELEFVQCLANPNYLNFLAQRGYFKDKAFVNYLKYLLYWKEPEYAKYLKYPQCLHMLELLQYEHFRKELVNAQCAKFIDEQQILHWQHYSRKRVRLQQALAEQQQQNNTAGK

Biological target: T1, 3XFLAG-MED26 (knock-in)
Experiment: cryo-EM structure

| Binder | binding result |
| --- | --- |
| B1 | binds |
| B2 | binds |
| B3 | binds |
